Tests used:
[1] = molecular target: insulin-like growth factor binding protein 5 (IGFBP5), full length, wild type (UniProt P24593); assay: FP; settings: enzyme
[2] = molecular target: insulin-like growth factor binding protein 5 (IGFBP5), full length, wild type (UniProt P24593); assay: fluorescence polarisation; FAM-labelled FL IGFBP5 at 5 nM; enzyme serially diluted from 10 µM to 0.5 nM; 1X PBS; 384-well plates; catalytically inactive enzymes

Sequence of insulin-like growth factor binding protein 5 (IGFBP5), full length, wild type (P24593 21-272): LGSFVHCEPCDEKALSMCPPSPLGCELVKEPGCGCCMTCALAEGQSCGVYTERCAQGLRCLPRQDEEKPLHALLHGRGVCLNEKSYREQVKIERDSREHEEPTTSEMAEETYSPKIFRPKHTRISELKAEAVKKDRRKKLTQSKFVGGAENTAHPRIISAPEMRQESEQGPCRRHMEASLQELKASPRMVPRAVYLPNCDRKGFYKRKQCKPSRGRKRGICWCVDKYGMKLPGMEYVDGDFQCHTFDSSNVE

Kd [1] [nM]	fold weaker binding than PAPP-A E483A [2] [fold]	Substance
2640		PAPP-A2 E500Q (catalytically inactive) (from UniProt Q9BXP8 235-1791)
	11	PAPP-A2 E500Q (catalytically inactive) (from UniProt Q9BXP8 235-1791) (enzyme)
